Data published in patent publication US20210071139A1.

Experiments:
Assay in all cases: TOX IP-MS, EL4 nuclear extract, MiST
Acad9 = Acad9 (UniProt Q8JZN5)
Acsl4 = Acsl4 (UniProt Q9QUJ7)
C1qc = C1qc (UniProt Q02105)
Cad = Cad (UniProt B2RQC6)
Cdadc1 = Cdadc1 (UniProt Q8BMD5)
Cdc73 = Cdc73 (UniProt Q8JZM7)
Dlst = Dlst (UniProt Q9D2G2)
Dmap1 = Dmap1 (UniProt Q9JI44)
Dnajc9 = Dnajc9 (UniProt Q91WN1)
Fubp1 = Fubp1 (UniProt Q91WJ8)
Fxr1 = Fxr1 (UniProt Q61584)
Ikbkap = Ikbkap (UniProt Q7TT37)
Ing4 = Ing4 (UniProt Q8C0D7)
Jade2 = Jade2 (UniProt Q6ZQF7)
Meaf6 = Meaf6 (UniProt Q2VPQ9)
Prrc2a = Prrc2a (UniProt Q7TSC1)
Rbm34 = Rbm34 (UniProt Q8C5L7)
Rbm42 = Rbm42 (UniProt Q91V81)
Chain of Rbm42 (Q91V81 2-478 limits assumed): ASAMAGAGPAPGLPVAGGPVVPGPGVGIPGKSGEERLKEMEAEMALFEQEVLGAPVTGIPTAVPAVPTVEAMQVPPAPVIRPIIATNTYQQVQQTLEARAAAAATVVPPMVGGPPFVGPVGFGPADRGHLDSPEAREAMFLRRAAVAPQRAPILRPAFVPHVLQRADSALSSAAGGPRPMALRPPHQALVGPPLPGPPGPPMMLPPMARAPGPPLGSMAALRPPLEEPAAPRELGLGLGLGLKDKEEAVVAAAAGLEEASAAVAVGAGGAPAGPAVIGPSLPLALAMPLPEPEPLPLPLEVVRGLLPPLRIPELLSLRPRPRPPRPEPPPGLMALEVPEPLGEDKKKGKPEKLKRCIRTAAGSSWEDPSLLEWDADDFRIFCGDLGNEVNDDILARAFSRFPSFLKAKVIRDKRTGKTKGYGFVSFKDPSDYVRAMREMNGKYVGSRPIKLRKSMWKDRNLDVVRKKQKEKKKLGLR

Rcn2 = Rcn2 (UniProt Q8BP92)
Rpl36; Gm8973 = molecular target: Rpl36; Gm8973
Rpl37a = Rpl37a (UniProt P61514)
Rrp8 = Rrp8 (UniProt Q9DB85)
Chain of Rrp8 (Q9DB85 whole entry): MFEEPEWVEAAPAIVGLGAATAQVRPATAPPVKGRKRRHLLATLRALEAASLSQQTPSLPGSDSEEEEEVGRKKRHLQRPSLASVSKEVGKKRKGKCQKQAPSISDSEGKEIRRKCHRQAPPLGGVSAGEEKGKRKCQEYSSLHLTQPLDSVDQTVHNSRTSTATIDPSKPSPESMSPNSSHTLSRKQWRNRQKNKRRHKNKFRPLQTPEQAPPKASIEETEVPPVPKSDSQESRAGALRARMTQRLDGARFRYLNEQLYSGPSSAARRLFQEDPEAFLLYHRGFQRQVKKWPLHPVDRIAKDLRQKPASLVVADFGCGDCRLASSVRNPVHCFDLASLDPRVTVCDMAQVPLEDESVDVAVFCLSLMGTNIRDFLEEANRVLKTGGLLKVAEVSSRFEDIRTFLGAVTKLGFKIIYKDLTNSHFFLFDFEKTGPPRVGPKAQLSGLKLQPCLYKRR

Sap130 = Sap130 (UniProt Q8BIH0)
Sdcbp = Sdcbp (UniProt O08992)
Srrt = Srrt (UniProt Q99MR6)
Thoc5 = Thoc5 (UniProt Q8BKT7)
Utp14a = Utp14a (UniProt Q640M1)
Chain of Utp14a (Q640M1 whole entry): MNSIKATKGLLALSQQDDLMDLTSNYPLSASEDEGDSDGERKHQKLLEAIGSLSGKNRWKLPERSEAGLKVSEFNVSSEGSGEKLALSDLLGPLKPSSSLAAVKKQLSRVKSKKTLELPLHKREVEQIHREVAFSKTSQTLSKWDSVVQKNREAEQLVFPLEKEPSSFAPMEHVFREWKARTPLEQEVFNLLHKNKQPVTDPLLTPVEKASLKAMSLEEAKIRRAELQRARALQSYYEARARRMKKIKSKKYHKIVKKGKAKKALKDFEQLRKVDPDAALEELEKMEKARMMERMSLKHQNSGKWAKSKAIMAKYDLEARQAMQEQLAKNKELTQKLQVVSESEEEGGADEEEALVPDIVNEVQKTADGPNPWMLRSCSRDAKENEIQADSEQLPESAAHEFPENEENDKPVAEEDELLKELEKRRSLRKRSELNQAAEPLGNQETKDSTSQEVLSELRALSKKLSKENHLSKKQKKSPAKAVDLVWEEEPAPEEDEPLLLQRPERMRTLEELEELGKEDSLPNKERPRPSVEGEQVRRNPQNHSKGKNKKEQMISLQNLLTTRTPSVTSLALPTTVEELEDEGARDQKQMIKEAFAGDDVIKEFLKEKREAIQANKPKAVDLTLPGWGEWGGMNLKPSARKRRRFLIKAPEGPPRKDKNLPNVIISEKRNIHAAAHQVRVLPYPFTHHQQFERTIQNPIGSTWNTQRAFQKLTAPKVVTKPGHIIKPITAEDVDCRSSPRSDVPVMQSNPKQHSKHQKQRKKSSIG

env = molecular target: env

Chain of Ikbkap (Q7TT37 whole entry): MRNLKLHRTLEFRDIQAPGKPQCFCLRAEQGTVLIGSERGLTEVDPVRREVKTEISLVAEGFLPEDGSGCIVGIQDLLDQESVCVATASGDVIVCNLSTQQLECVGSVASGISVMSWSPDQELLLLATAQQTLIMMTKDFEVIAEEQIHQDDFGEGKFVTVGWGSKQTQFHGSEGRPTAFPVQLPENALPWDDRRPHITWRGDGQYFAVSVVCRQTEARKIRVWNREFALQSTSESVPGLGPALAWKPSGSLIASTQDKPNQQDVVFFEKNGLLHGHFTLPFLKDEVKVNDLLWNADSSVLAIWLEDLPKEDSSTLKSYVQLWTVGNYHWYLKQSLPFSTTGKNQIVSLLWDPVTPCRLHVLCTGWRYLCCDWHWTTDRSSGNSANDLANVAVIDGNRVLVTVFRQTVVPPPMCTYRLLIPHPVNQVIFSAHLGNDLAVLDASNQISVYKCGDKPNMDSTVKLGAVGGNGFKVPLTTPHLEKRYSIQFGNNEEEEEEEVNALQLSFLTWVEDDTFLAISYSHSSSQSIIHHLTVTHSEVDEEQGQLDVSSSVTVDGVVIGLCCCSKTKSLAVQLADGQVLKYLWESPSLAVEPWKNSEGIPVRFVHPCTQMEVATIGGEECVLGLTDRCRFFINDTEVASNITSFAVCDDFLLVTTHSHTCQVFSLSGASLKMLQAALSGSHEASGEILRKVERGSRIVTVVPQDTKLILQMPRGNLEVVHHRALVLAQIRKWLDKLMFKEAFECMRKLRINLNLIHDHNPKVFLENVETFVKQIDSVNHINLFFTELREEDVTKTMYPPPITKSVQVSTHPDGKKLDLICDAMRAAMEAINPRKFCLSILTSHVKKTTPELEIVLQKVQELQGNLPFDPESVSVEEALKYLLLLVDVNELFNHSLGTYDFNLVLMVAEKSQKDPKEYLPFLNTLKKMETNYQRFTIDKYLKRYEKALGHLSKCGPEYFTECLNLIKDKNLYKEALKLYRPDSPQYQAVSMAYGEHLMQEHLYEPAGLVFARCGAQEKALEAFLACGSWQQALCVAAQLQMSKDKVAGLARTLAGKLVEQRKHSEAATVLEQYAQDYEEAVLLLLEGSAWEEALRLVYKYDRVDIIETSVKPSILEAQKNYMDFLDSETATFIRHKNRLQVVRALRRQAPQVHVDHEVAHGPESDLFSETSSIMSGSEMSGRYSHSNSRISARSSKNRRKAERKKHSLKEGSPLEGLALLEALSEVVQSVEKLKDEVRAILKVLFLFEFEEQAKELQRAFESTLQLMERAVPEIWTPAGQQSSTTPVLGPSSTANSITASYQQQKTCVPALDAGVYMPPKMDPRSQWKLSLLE
Chain of Dnajc9 (Q91WN1 whole entry): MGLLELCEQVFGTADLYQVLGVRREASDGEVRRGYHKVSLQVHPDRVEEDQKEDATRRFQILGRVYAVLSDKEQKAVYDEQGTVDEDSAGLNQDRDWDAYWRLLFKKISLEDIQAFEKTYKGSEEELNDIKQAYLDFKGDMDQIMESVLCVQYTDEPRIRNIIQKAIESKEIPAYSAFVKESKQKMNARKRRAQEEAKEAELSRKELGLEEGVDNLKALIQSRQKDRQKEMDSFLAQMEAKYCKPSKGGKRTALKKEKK
Chain of Fubp1 (Q91WJ8 2-651 limits assumed): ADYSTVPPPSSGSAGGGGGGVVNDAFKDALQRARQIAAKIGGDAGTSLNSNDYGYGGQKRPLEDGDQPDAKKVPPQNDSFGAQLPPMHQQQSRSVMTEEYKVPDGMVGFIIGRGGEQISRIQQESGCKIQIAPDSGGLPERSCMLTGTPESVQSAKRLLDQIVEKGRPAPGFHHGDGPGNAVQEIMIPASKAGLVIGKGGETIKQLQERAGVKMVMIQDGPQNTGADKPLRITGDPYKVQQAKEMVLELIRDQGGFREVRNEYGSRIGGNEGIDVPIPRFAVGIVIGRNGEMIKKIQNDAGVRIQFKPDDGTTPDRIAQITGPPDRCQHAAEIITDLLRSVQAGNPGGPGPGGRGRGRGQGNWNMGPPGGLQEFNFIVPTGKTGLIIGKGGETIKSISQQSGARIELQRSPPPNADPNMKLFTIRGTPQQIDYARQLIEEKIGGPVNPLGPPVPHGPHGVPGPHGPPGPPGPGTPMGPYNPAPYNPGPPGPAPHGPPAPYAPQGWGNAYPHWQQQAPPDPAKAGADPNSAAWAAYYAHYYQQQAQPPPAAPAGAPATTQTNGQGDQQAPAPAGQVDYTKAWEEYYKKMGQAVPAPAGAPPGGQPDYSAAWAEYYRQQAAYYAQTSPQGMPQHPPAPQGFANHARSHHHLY
Chain of Tox (Q66JW3 whole entry): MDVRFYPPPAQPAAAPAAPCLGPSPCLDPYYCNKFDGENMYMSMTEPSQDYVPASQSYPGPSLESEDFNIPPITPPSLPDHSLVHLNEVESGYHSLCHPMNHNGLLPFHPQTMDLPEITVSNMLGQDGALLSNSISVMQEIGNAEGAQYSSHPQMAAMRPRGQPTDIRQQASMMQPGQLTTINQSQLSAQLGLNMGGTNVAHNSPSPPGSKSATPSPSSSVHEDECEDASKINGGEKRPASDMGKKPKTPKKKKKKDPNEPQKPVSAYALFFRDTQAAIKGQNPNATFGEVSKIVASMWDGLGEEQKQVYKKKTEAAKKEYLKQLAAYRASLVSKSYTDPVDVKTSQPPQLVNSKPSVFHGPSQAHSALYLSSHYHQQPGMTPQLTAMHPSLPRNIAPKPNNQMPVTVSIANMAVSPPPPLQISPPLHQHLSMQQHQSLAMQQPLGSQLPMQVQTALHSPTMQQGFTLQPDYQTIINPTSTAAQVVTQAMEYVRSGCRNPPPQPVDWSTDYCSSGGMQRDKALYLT
Chain of Dmap1 (Q9JI44 whole entry): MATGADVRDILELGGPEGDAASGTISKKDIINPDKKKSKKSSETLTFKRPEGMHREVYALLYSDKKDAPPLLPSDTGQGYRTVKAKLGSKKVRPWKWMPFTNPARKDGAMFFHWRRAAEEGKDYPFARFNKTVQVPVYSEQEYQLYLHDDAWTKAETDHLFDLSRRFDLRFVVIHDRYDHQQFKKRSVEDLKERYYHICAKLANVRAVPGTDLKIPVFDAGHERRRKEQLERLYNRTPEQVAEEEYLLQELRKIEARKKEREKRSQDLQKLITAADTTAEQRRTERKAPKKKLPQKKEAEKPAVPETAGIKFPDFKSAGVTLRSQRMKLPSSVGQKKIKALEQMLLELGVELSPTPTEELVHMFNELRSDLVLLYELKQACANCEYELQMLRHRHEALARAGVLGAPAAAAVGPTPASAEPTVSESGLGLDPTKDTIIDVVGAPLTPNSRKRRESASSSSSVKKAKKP

Tox (from UniProt Q66JW3 1-526)
Abundance (Acad9): 7.35e-06
MiST Score (Acad9): 0.919
Reproducibility (Acad9): 0.846
Specificity (Acad9): 0.959
Abundance (Acsl4): 2.9e-06
MiST Score (Acsl4): 0.968
Reproducibility (Acsl4): 0.914
Specificity (Acsl4): 1
Abundance (C1qc): 0.000821
MiST Score (C1qc): 0.976
Reproducibility (C1qc): 0.943
Specificity (C1qc): 1
Abundance (Cad): 2.65e-07
MiST Score (Cad): 0.906
Reproducibility (Cad): 0.714
Specificity (Cad): 1
Abundance (Cdadc1): 0.00034
MiST Score (Cdadc1): 0.95
Reproducibility (Cdadc1): 0.882
Specificity (Cdadc1): 0.988
Abundance (Cdc73): 4.06e-05
MiST Score (Cdc73): 0.896
Reproducibility (Cdc73): 0.886
Specificity (Cdc73): 0.908
Abundance (Dlst): 0.000104
MiST Score (Dlst): 0.934
Reproducibility (Dlst): 0.941
Specificity (Dlst): 0.938
Abundance (Dmap1): 6.59e-06
MiST Score (Dmap1): 0.904
Reproducibility (Dmap1): 0.709
Specificity (Dmap1): 1
Abundance (Dnajc9): 5.16e-05
MiST Score (Dnajc9): 0.961
Reproducibility (Dnajc9): 0.892
Specificity (Dnajc9): 1
Abundance (Fubp1): 4.54e-06
MiST Score (Fubp1): 0.984
Reproducibility (Fubp1): 0.966
Specificity (Fubp1): 1
Abundance (Fxr1): 1.59e-05
MiST Score (Fxr1): 0.915
Reproducibility (Fxr1): 0.924
Specificity (Fxr1): 0.919
Abundance (Ikbkap): 1.13e-06
MiST Score (Ikbkap): 0.913
Reproducibility (Ikbkap): 0.737
Specificity (Ikbkap): 1
Abundance (Ing4): 0.00024
MiST Score (Ing4): 0.987
Reproducibility (Ing4): 0.977
Specificity (Ing4): 1
Abundance (Jade2): 4.26e-06
MiST Score (Jade2): 0.937
Reproducibility (Jade2): 0.815
Specificity (Jade2): 1
Abundance (Meaf6): 5.46e-05
MiST Score (Meaf6): 0.968
Reproducibility (Meaf6): 0.916
Specificity (Meaf6): 1
Abundance (Prrc2a): 7.11e-07
MiST Score (Prrc2a): 0.916
Reproducibility (Prrc2a): 0.862
Specificity (Prrc2a): 0.948
Abundance (Rbm34): 4.09e-05
MiST Score (Rbm34): 0.962
Reproducibility (Rbm34): 0.895
Specificity (Rbm34): 1
Abundance (Rbm42): 9.15e-06
MiST Score (Rbm42): 0.969
Reproducibility (Rbm42): 0.919
Specificity (Rbm42): 1
Abundance (Rcn2): 1.4e-05
MiST Score (Rcn2): 0.992
Reproducibility (Rcn2): 0.993
Specificity (Rcn2): 1
Abundance (Rpl36; Gm8973): 0.00269
MiST Score (Rpl36; Gm8973): 0.928
Reproducibility (Rpl36; Gm8973): 0.855
Specificity (Rpl36; Gm8973): 0.969
Abundance (Rpl37a): 0.00127
MiST Score (Rpl37a): 0.911
Reproducibility (Rpl37a): 0.731
Specificity (Rpl37a): 1
Abundance (Rrp8): 4.13e-06
MiST Score (Rrp8): 0.969
Reproducibility (Rrp8): 0.919
Specificity (Rrp8): 1
Abundance (Sap130): 5.37e-06
MiST Score (Sap130): 0.971
Reproducibility (Sap130): 0.926
Specificity (Sap130): 1
Abundance (Sdcbp): 5.96e-05
MiST Score (Sdcbp): 0.957
Reproducibility (Sdcbp): 0.88
Specificity (Sdcbp): 1
Abundance (Srrt): 2.3e-06
MiST Score (Srrt): 0.913
Reproducibility (Srrt): 0.953
Specificity (Srrt): 0.903
Abundance (Thoc5): 3.93e-06
MiST Score (Thoc5): 0.987
Reproducibility (Thoc5): 0.977
Specificity (Thoc5): 1
Abundance (Utp14a): 3.2e-06
MiST Score (Utp14a): 0.93
Reproducibility (Utp14a): 0.792
Specificity (Utp14a): 1
Abundance (env): 0.000113
MiST Score (env): 0.977
Reproducibility (env): 0.946
Specificity (env): 1
